Data published in patent US7157224B2, “Screening and use of agents which block or activate intein splicing utilizing natural or homologous exteins” (priority 1992, dated 2007).

biological target: T1, Mtu DnaB intein (IVPS) (Mycobacterium tuberculosis, UniProt P9WMR3); type: cell-based; details: E. coli, peptide in chicken α-spectrin loop on pEA825 (wild type Mtu dnaB), 37° C., 1 mM IPTG for 3 hours, crude cell extracts, anti-T7 tag immuno-staining
T1 sequence (P9WMR3 whole entry, looked up): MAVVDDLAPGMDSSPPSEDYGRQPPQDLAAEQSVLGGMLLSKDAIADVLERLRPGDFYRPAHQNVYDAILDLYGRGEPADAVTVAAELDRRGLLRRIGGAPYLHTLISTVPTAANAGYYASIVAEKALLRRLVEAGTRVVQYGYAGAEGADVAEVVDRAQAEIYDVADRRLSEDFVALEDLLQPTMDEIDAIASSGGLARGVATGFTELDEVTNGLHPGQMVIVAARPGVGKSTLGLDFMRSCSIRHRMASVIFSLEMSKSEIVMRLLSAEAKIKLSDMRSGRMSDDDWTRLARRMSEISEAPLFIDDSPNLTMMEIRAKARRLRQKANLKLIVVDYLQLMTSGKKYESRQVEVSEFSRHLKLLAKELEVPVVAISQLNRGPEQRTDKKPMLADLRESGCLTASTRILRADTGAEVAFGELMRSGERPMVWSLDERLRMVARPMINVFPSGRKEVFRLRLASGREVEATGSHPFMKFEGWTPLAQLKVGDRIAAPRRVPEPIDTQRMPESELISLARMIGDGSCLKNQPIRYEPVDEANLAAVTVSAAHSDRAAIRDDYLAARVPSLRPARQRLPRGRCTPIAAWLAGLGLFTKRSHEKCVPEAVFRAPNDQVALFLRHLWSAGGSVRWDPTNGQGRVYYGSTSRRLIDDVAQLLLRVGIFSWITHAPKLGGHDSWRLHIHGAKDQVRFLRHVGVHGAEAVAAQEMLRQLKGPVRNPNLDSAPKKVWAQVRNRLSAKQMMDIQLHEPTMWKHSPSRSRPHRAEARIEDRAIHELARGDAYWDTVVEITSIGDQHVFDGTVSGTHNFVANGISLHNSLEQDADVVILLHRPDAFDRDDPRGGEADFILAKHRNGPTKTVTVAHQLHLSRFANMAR

Substance	protein splicing of the Mtu DnaB intein (detection of Mtu DnaB protein splicing products)
DLPMVEE [pEA818rev, reference compound]	occurred as efficiently as with the pMtu DnaB clone
HPNPHPTLSGQR [pEA818]	selected for inhibition of splicing
PTARTYE [pEA816]	selected for inhibition of splicing
PTRPTAPPLNFS [pEA817]	selected for inhibition of splicing
RPAPRPL [pEA815]	selected for inhibition of splicing
TVQSTKR [pEA814]	selected for inhibition of splicing
